Laboratory results from PMC11443517.

How the values were obtained:
[1] = target: eDEN1-FRET-D10N with the Wp2 domain replaced by Wp1; assay: FRET or BRET; intramolecular FRET of 50 nM sensor (ratio of emission at 475 nm to 525 nm, excitation 440 nm) titrated with free or precursor Nedd8, binding competes with the reporter interaction; PBS pH 7.4, 0.05% Brij-35, 0.2 mg/mL ovalbumin, 1 mM DTT; single-site fit
eDEN1-FRET = assay: as above
[2] = target: eDEN1-FRET-D10N construct lacking the C163A mutation; assay: as above
eDEN1-FRET-D10N = assay: as above
eDEN1-nanoBiT = assay: split reporter (BiFC, NanoBiT); intramolecular split nanoluciferase of purified eDEN1-nanoBiT, luminescence at 450 nm falls on binding; titration with the ligand; PBS pH 7.4, 0.2 mg/mL ovalbumin, 1 mM DTT, no Brij-35, 70 uM furimazine, 25 C, 96-well plate; single-site fit

| Kd [1] | Kd (eDEN1-FRET) | Kd [2] | Kd (eDEN1-FRET-D10N) | Kd (eDEN1-nanoBiT) | fold selectivity for free Nedd8 compared to precursor Nedd8 (eDEN1-FRET-D10N) | Substance |
| --- | --- | --- | --- | --- | --- | --- |
| 6.03 µM | 7.61 µM | 50.5 µM | 0.324 µM | 3.2 µM |  | free Nedd8 (from UniProt Q15843 1-76) (natural protein) |
|  |  |  |  | 270 µM | 444 fold | precursor Nedd8 (from UniProt Q15843 1-81) (natural protein) |
